Experimental data taken from the nanobody polyreactivity screen of Harvey et al. (2022).

Assay: yeast display, Sf9 membrane polyspecificity reagent, FACS + sequencing; frameworks hold sequencing errors
Procedure, shortened: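 Sorting gates, low and high (top ~1%), were placed on anti-HA fluorescence to track expression and on streptavidin fluorescence to track reagent binding. A clone's polyreactivity label is taken from the gate it came out of. The reagent was 10% biotinylated, detergent-solubilized Sf9 membrane, applied for 1 hour at 4 °C to galactose-induced yeast display cells.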

Sequence	polyreactivity (PSR sort gate)
QVQLVESGGGLVQAGGSLRLSCAASGSTFDYYTMGWYRQAPGKERELVAAISSSGGSTYYADSVTGRFTISRDNAKNTVYLQMNSLKPEDTAVYDCAARGYHYSYLRGDTGYYYWGQGTQVTVSS	low polyreactivity
QVQLVESGGGLVQAGGSLRLSCAASGGTFWLYAMGWYRQAPGKEREFVAAISYSGGSTYYADSVKGRFTISRDHAKNTVYLQMNSLKPEDTAVYYCAASAYYLDYDYWGQGTQVTVSS	high polyreactivity
QVQLVESGGGLVQAGGSLRLSCAASGTTFYNYAMGWYRQAPGKERELVAAITSSGGSTYYADSVKGRFTISRDNAKNTVYLQMNSLKPEDTAVYYCNAVDGYGLVHSISTYEMDYWGQGTQVTVSS	low polyreactivity
QVQLVESGGGLVQAGGSLRLSCAASGRILQFYAMGWYRQAPGKERELVATIRVGGGSTYYADSVKGRFTISRDNAKNTVYLQMYSLKPEDTAVYYCAVRQLYSYPGDRRGYYWGQGTQVTVSS	low polyreactivity
QVQLVESGGGLVLAGGSLRLSCAASGRIFIGNAMGWYRQAPGKERELVAAISKRGGSTYYADSVKGRFTISRDNAKNTVYLQMISLKPEDTAVYYCNKEPLYREFDYWGQGTQVTVSS	low polyreactivity
QLQLVESGGGLVQAGGSLRLSCAASGITLYRYVMGWYRQAPGKERELVADISGRGTSTYYADSVKGRFTISRDNAKNTVYLQMNSLKPEDTSVYYCNAEYTKTGALVIPYTYYYAADYWGQGTQVTVSS	low polyreactivity
QVQLVESGGGLVQAGGSLRLSCAASGSTSSPNAMGWNTQAPGKEREFVAAISRSGGSTYYADSVKGRFTISRDNAKNTVYLQMNSLKPEDSAVYYCAATVTVFYTRYYYWGQGTHVTVSS	high polyreactivity
QVQLVESGGGLVQAGGSLRLSCAASGRIFPRNTMGWYRQAPGKEREMVAAISTRGGSTYYADSVKGRFTISRDNAQNTVYLEMNSLKPEDTAVDYSAAGRRFPAIYSTGNYWGQGTQVTVSS	high polyreactivity
QVQLVESVGGLVQAGGSLRLSCAASGSISGYYAMGWYRQAPGKERELVASIRYTGARTYYADSVKGRFTISRDNAKNTVYLQMHSLKPEDTAVYYCAADVNRDRVWGGDYWGQGTQVTVSS	low polyreactivity
QVQLVESGGGLVQAGGSLRLSCAASGYISYVNAMGWYRQAPGKERELVAAISGRGGSTYYADSVKGRFTISRDNAKNNVYLQMNSLKPEDTAVYYCAADLYYSYYWGQGTQVTVSS	low polyreactivity
QVQLVESGGGLVKARGSLLLSCAASGFTFPYNAMGWYRQAPGKDRELVAAISWSGGSTYYADSVKGRFTLSRDNAKNTVYLQMNSLKPEDTAVYYCAASYWWIPMEYWGQVTQVTVSS	high polyreactivity
QVQLVESGGGLVQAGGSLRLSCAASGITSRLYAMGWYRQAPGKERELVAAINSIDGSTNYADSVKGRFTISRDNAKNTVYLQMNSLKPEDTAVYYCNKRYGYTGFSPRYDYWGQGTQVTVSS	low polyreactivity
QVQLVESGGGLVQAGGSLRLSCAASGRTFQRNAMGWYRQAPGKERELVAAISWRGGSTYYADSVKGRFTISRDNAKNTVYLQMNSLKPEDTAVYYCNTYPSQYLWYDYWGQGTQVTVSS	high polyreactivity
QVQLVESGGGLVQAGGSLRLSCAASGSIFAWYGMGWYRQAPGKERELVAAITSTGSTYYADSVKGRFTISRDNAKKTVYLQMNSLKPEDTAVYYCNAYSVYLWRPGDYWGQGTQVTVSS	low polyreactivity
QVQLVESGGGLVQAGGSLRLSCAASGLIFGTNAMGWYRQAPGKERELVAAISGSGGRTYYADSVKGRFTISRDNAKNTVYLQMNSLKPEDTAVYYCATAWYLGRYRRLGYWGQGTQVTVSS	high polyreactivity
QVQLVESGGGLVQAGGSLRLSCAASGLIYVGNAMGWYRQAPGKERELVAAISSRGGRTYYADSVKGRFTISRDNAKNSVYLQMNSLKPEDSAVYYCNAANSQWGFEYWGQGTQVTVSS	high polyreactivity
QVQLVESGGGLVQAGGSLRLTCAASGSTYTGYAMGWYRQAPGKERELVAAISISGGRTFYADSVKGRFTISRDNAKNTVYLQMNSLKPEDTAVYYCAAYLRGSKYSFDYWGQGTQVTVSS	high polyreactivity
QVQLVESGGRLVQAGGSLRLRCAASGFTFGYNDMGWYRPAPGKERELLAGIRSGDDTNYADSVKGRFTISRDNAKNTDYLQMNSLKPEDTAVYYCAADVVNIATAEYDYCGQGTQVTVSS	low polyreactivity
QVQLVESGGGLVQAGGSLRLSCAASGRTFLRYAMGWYRQAPRKERELVAAISVSGASTNYADSVKGRFTISRDYAKNTVYLQMNSLKPEDTAVYYCAARVADYDGVPLYRHGDYWGQGTQVTVSS	low polyreactivity
QVQLVESGGALVQAGGSLRLSCAASGSTFRYYAMGWYRQAPGKERELVAAIRWSGDSTYYADSVKGRFTISRDNAKNTVYLQMNSLKPEDTAVYYCAADRQRSHRVGTKGHRVGYWGQGTQVSVSS	high polyreactivity
QVQLVETGGGLVQAGGSLGLSFAASGFIFSYYLMGWYRQAPGKERELVAAITTSGDSTYYADSVKGRFTISSDNAKNTVYLQINRLKPEDSAVYYCAADNYYETIWHYGYWGQGTQVTVSS	high polyreactivity
QVQLVESGGGLVQAGGSLRLSCAASGSTFVGYAMGWYRQAPGTERDLVAAISSSGSTNYADSVKGRFTISRDNAKNTVYLQMNSLKPEDTAVYYCAALYSYFWLIIDYGYWGQGTQVTVSS	low polyreactivity

Sequence	polyreactivity (PSR sort gate)
QVQLVESGGGLVQAGGSLRLSCAASGRIFDGNAMGWYRQAPGKERELVAAISSSGGSTYYADSVKGRFTISRDNAKNTVYLQMNSLKPEDTAVYYCAYPLRRTWGNYRYGYWGQGTQVTVSS	high polyreactivity
QVQLVESGGGLVQAGGSLRLSCAASGFTFQDYAMGWYRQAPGKERELVASISNGGSTYYADSVKGRFTISRDNAKNTVYLQMNSLKPEDTAVYYCAKPYDPGPYHSSYRATDDYWGQGTQVTVSS	low polyreactivity
QVQLEESGGGLVQAGGSLRLSWAASGITFAYYAMGWYRQAPGKERELVAAINYNGGRTYYADSVKGRFTISRDNAKNTVYLQMNSLKPEDTAVYYCAARGYRHFYYWGQGTQVTVSS	high polyreactivity
QVQLVESGGGLVQAGGSLRLSCAASGSTFVSNAMGWYRQAPGKERELVAGISWSGGSTYYADSVKGRFTISRDNAKNTVYLQMHSLKPEDTAVYYCNAVYRPRQFDYWGQGTQVTVSS	low polyreactivity
QVQLVESGGGLVQAGGSLRISCAASGRTFGRYAMEWYRQAPGKERELVAAISWSGGSTYYADSVKGRFTISRDNAKNTVYLQMNSLKPEATAVYYCAAVTTDGVYAFDYWGQGTQVTVSS	low polyreactivity
QVQLVESGGGLVQAGGSLRLSCAASGRIFWANAMGWYRQATGKERELVAAITGSGRTYYADSVKGRFTISRDNAKNTVYLQMISLKREDTAVYYCAAVTYYELAQGYGYWGQGTQVTVSS	high polyreactivity
QEQHVESAGGLVQAGGSLRLSCAASASIIYKYAMGWYRQAPGKERELVAAINSGGRTYYADSVKGRFTISRDNAKNTVYLQMNSLKPEDTAVYYCNAGTYYPGRYDYWGQGTQVTVSS	high polyreactivity
QVQLVESGGGLVQEGGSLRLSCAASGRIFYFYAMGRYRQAPGKERELVADIDWSGDSTYYADSVKGRFTISRDNAKITVYLQMNSLIPEDTAVYYCNAAYYYYSTSYTYDYWGQGTQVTVSS	low polyreactivity
QVQLVESGGGLVQAGGSLRLSCAASGIFSRYAMGWYRQAPGKERELVAAISSGGSTYYADSVKGRFTISRDNAKNTVYLQMNSLKAEDTAVYYCAVKQRDKFAGGRNDYWGQGTQVTVSS	high polyreactivity
QVQLVESGGGLVQAGGSLRLSCAASGITFPYYAMGWYRQAPGKERELVAAISLSGGTTYYADSVKGRFTISRDNAKNTVYLQMNSLKPDDTAVYYCAARSSKFVTSNRYDYWGQGTQVTVSS	high polyreactivity
QVQLVESGGCLVQAGGSLRLSSAASGFIFYYNAMGWYRQEPGKESELVATIRGSGGSTYYADSVKGRFTISRDNAKNTVYLQMNSLKPEDTAVYYCAASVQYRRLKKFYYWGQGTQVTVSS	high polyreactivity
QVQLVESGGGLVQARGSLRLSCAASGFTFGYNAMGWYRKAPGTERELVAVITQSGGRTYYADSVKGRFTISRDNANNSVYLQMNSLKPEDTAVYYCAARYRLAPYYYWGQGTQVTVSS	high polyreactivity
QVQLVESGGGLVQAGGSLRLSCAASGRTFPPYAMGWYRQAPGKERELVAAISSDGSTYADSVKGRFTISRDNAKNTVYLQMNSLKPEDTAVYYCAVDYTYSYRKHFGHILYSWGQGTQVTVSS	low polyreactivity
QVQLVESGGGLVQAGGSLRLSCAASGIIFGYNVMGWYRQAPGKERELVAAISGSGSSTYYADSVKGRFTISRDNAKITVYLQMNSLKPEDTAVYYCAARRYSTKRWRMYYWGQGTQVTVSS	high polyreactivity
QVQLVESGGGLVQAGGSLRLSCAASGNIFSFNDMGWYRQAPGKERELVAGITTSESTNYADSVKGRFTISRDNAKNTVYLQMNSLKPEDTAVYYCATEILTAARDTVVYQFYLGYYYWGQGTQVTVSS	low polyreactivity
QVQLVESGGGLVQAGGSLRLSCAASGRTFRYYAMGWYRQAPGKERELVAAITSGGSTYYADSVKGRFTISRDNAKNTVYLQMNSLKPEDTAVYYCAAVPAGLWATYPQFRYGYWGQGTQVTVSS	high polyreactivity
QVQLVESGGGLVQAGGSLRLSCAASGFIFLGYGMGWYRQAPGKEREFVAGISWSGGSTYYADSVKGRFTISRDNAKNTVYLQMNSLKPEDTAVYYCNAVVFWGGGDYYWGQGTQVTVSS	low polyreactivity
QVQLVESGGGLVQAGGSLRLSSAASGLTFALYAMGWYRQAPGKERELVATISRGASTNYADSVKGRFTISRDNTKNTVYLQMNSLKPEDTAVYYWAVALRSTPRTREVRPSPRVYYWGQGTQVTVSS	high polyreactivity
QVQLVESGGGLVQAGGSLRLSCAASGRTFAYYAMGWYRQAPGKERELVAAITRGGSTYYADSVKGRFTISRDNAKNTVYLQMNSLKPEDTAVYYCATLYTRYDSYLVKGKYGYWGQGTQVIVSS	high polyreactivity
QVQLVESVGGLVQAGGSLRLSCAASGRTFTTNAMGWYRQAPGKERELVAAITIGDDTYYADSVKGRFTISRDNAKNTVYLQMNSLKPEDTAVYYCAADYKRVPFVTQYVSKDGYWGQGTQVTVSS	low polyreactivity
QVQLVESGGGLVQAGGSLRLSCAASGSTFYRNAMGWYRQAPGKERAFVAAISFRGGGTYADSVKGRFTISRDNAKNTVYLQMNSLKPEDTAVYYCAADHLSYPRRYEYWGQGTQVTVSS	low polyreactivity
